The results in this text go back to article PMC3084761.

The assay deals with OS-9 fused to the N-terminus of EYFP (pEYFP-N1-OS-9) (human) (UniProt Q13438). Kind of assay: FRET or BRET; live-cell confocal FRET of ECFP (donor) and EYFP (acceptor) fusions in HEK293 cells transfected 48 h; acceptor/donor plasmid ratios 1:1 to 5:1; FRET efficiency against A/D ratio fitted to a 1:1 binding model.

A value given as a limit tells only on which side of the number the result lay.

Sequence of OS-9 fused to the N-terminus of EYFP (pEYFP-N1-OS-9) (human) (Q13438 26-667): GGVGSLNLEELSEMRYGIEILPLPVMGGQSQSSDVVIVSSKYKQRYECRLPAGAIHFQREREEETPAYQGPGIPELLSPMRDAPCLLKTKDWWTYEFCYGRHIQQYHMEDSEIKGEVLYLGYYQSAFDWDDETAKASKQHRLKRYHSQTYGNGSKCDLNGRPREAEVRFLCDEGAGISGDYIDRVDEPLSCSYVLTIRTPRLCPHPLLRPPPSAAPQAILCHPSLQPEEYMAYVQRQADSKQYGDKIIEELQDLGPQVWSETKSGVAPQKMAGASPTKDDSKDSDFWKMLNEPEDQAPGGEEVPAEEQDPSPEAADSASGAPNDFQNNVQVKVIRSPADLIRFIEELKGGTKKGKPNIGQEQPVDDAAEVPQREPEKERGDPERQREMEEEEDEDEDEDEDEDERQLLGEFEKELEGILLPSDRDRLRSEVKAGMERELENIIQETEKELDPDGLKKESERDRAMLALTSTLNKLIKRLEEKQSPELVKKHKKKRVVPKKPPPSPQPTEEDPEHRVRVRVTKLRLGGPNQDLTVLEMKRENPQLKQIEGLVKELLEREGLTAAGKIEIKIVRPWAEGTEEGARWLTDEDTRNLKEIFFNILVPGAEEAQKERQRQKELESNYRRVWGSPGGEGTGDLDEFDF

Take “PHD2-ECFP (PHD2 coding sequence in pECFP-N1) (from UniProt Q9GZT9 1-426) (enzyme)”: the maximum FRET efficiency was less than 10%.
